# The nanobody polyreactivity screen of Harvey et al. (2022)
# Test: yeast display, Sf9 membrane polyspecificity reagent, FACS + sequencing; frameworks hold sequencing errors
# Procedure, shortened: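 Polyreactivity labels are assigned by the sorting gate from which each nanobody was recovered. The gates were low and high (top ~1%), set on anti-HA fluorescence for expression and streptavidin fluorescence for reagent binding. Before sorting, galactose-induced (36–48 hours) yeast display cells were stained for 1 hour at 4 °C with 10% biotinylated, detergent-solubilized Sf9 membrane reagent.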
row,Sequence,polyreactivity (PSR sort gate)
1,QVQLVESGGGLVQAGGSLRITCAASGRIFGLYAMGWNRQAPGKEREFVAASSWSGTRTNYADSVKGRFTISRDNAKNTVDLQMNSLKPEDTAVYYCAAAYVSYTGYYGQEYDYWGQGTQVTVSS,high polyreactivity
2,QVQLVESGGGLVQAGGSLRKSCAASGRTFGYNTMGWYRQAPGKERELVAAITWSGGRTYYADSVKGRFTISRDNAKNTVYLQMNSLKPEDTAVYYCIAVIGREFDYWGQGTQVTVSS,high polyreactivity
3,QVQLVESGGGLVQAGGSLRLCCAASGLTFHRYAMGSYRQAPGKERELDAAINYSGGRTYYADSVKGRFTISRDNAKNTVYLQMNSLKPEDTAVYYCAAPRASGYYWGQGTQVTVSS,high polyreactivity
4,QVQLVESGGGLVQAGGSLRLCCAASGRIFRYNAMGWYRQAPGKERELVAAITRSGGSTYYADSVKGRFTISRDNAKNTVYLQMNSLKPEDTAVYYCAKVQNGQWSTSRVPGDYQYNYWGQGTQVTVTS,high polyreactivity
5,QVQLVESGGGLVQAGGSLRLCCAASGSTQAIYAMGWYRQAPGNERELVAAISGGGSTYADSVKGRFTISRDNAKNTVYLQMNSLKPEDTAVYYCNADGWGDSFWSNFRFDYWGQGTQVSVSS,low polyreactivity
6,QVQLVESGGGLVQAGGSLRLCCAPSGSIFYGYDMGWYRQAPGKERELVATISWSSGSSTYYADSVKGRFTISRDNAKNTVYLQMNSLKPEDTAVYYCAVDFAIGYRYLGRVDYWGQGTQVTVSS,low polyreactivity
7,QVQLVESGGGLVQAGGSLRLFCAASGSTFISYAMGWYRQAPGKERELVAAISSSGGSTYYAYSVKGRFTISRDNAKNNVYLQMNSLKPEDTAVYYCAAEAVYYRSWRYYYCGQGTQVTVSS,high polyreactivity
8,QVQLVESGGGLVQAGGSLRLGCAASGITFNLYAMGWYRQAPGKERELVAAISRSATSTYYADSVKRRFTISRDNAKNTVYLQMNSLKPEDTAVYYCATRGHYRQTINYWGQGTQVTVSS,high polyreactivity
9,QVQLVESGGGLVQAGGSLRLICAASAITFYDYTMGWYRQAPGKERELVAAISRSGGSTYYADSVKGRFTISRDNAKNTVYLQMNSLKPEETAFYYCADYTHYQPEYDYWGQGTQVTVSS,high polyreactivity
10,QVQLVESGGGLVQAGGSLRLICAASGFIFGYNARGWYRQAPGKERELVAAINWSGGRTYYADSVKGRFTISRDNAKKTVYLQMNRLKPEDTAVDYCNGDGSRRYNYWGQGTQVTVSS,low polyreactivity
11,QVQLVESGGGLVQAGGSLRLICAASGFIFPDYGMGWYRQAPGKERELVAAISRNGVSTYYADSLKRRFTISRDNAKNTVYLQMISLIPEDTAVYYCAARYYRIRRVSKSVYYWGQCTQVTVSS,low polyreactivity
12,QVQLVESGGGLVQAGGSLRLICAASGFIFSRYTMGWYRQAPGKERELVAAISKRGGSTYYADSVKGRFTISRDNAKNTVYLQMNSLKPEDTAVYYCAADRLPSGSLVEYWGQGTQVTVSS,high polyreactivity
13,QVQLVESGGGLVQAGGSLRLICAASGFIFSSNAMGWYRQAPGKERELVAAITRSGGSTYYADSVKGRFTISRDNAKNTVYLQMNSLKPEDTAVYYCNAYVWRSGYDYWGQGTQVTVSS,high polyreactivity
14,QVQLVESGGGLVQAGGSLRLICAASGFIFTANVMGWYRQAPGKERELVAAISRSGGSTYYADSVKGRFTISRDNAKNTVYLQMNSLKPEDTAVYYCAKLRRDARYDYWGQGTQVTVSS,high polyreactivity
15,QVQLVESGGGLVQAGGSLRLICAASGFIFVDNAMGWYRQAPGKERELVAAITSGASTYYADSVKGRFTISRDNAKITVYLQMNSLKPEDTAVYYCAADYLYYYTWYNYWGQGTQVTVSS,low polyreactivity
16,QVQLVESGGGLVQAGGSLRLICAASGFIFWFYAMGWYRQAPGKERELVASISASGGSTNYADSVKGRFTISRDKAKNTVYLQMNSLKPEDTAVYYCAARKRYQRGYWGQGTQVTVSS,high polyreactivity
17,QVQLVESGGGLVQAGGSLRLICAASGFILKPNAMGWYRQAPGKERELVAAISWSSGSTYYADSVKGRFTISRDNAKNTVYLQMNSLKPEDTAVYYCAADYFVYPVDWYDYWGQGTQVTVSS,low polyreactivity
18,QVQLVESGGGLVQAGGSLRLICAASGFNFQRYAMGWYIQAPGKERELVATISNSGGRTYYADSVKGRFTISRDNAKNTVYLQMNSLKPEDTAVYYCAAGKPYSSYWSWGYWSNLEDDYWGQGTQVTVSS,high polyreactivity
19,QVQLVESGGGLVQAGGSLRLICAASGFTFASNDMGWYRQAPGKERELVAAITKGGGRTYYADSVKGRFTISRDNAKNTVYFQMNSLKPEETAVYYCAGRQLIKYDYWGQGTQVTVSS,low polyreactivity
20,QVQLVESGGGLVQAGGSLRLICAASGFTFDYNAMGWYRPAPVKERELVAAISGSGGSTFYADSVKGRFTISRDNAKNTVYLQMNSLKPEDTAVYYCNVYQHDDDFDYWGQGTQVTVSS,low polyreactivity
21,QVQLVESGGGLVQAGGSLRLICAASGFTFLVYAMAWDRQAPGKERELVAAIRWRGGSTYADSLKGRFTISRDNAKNTVYLQMYSLKPEDTAVYYCAAANRYYVSPRVYYWGQGTQVTVSS,high polyreactivity
